According to the DeepSol protein solubility set:

test: soluble on expression in E. coli; label from the status in PepcDB or PDB records

| Sequence | soluble on expression in E. coli |
| --- | --- |
| GMSIVGNVENLINGVGELWNKYVKHEFILKMRDGSLPLDIFRYYLIQDGKYVEDMLRALLIASSKGPIDKVTKILNLVFSSRDKGLETHGKLYSKLDISRDVIVKTGYNLINYAYTRHLYYYANLDWNKFLVAWTPCMFGYSIVGDYVIDSPNEVYKTWASFYASTEYKKRIEAILYALDEVSITEDLLNIFINSVRFEIGFWDASLRKDPTVY | soluble |
| MQAKVHVKKGDTVLVASGKYKGRVGKVKAVLPRKMAVIVEGVNLVKKAVRPSPKHPQGGFVEQEAPLHASKVRPICPACGKPTRVRKKFLEDGRKIRACAKCGGSLDVEELEHHHHHH | not soluble |
| MSLTETILSVGIDLGTSTTQLILSELEIQNMASSFTVPRIVISDKRIIFRSEILFTPILADNLIDVEAIRDFVTKEYANAGIKKEEIGMGAVIITGETARKDNASNVLDAMSGFAGDFVVATAGPDLESIIAGKGAGAHTYAKENNTSVVNLDIGGGTTNLSLFDRGELIDTACLDIGGRLIKVDRETRKITYIAPKIQALIEKRGYPVKLGETTSPENLQPVLGEMVELLKNSVGLGAPNDFYKTIITNKGLKFLTEIECISFSGGVADCISTGALSDPFRYGDIGLLLGKAIAESSLMTEKKYIESVETIRATVVGAGSHTAEISGSTITYTEKIFPVKNIPILKLAKQEEDENMAEVIKEKLSWFKIENEMEHIALAIEGENSPSFQQVTEYAKAICEGMKEPIALGHPLIIITWHDMAKALGQSIFGHLPAGHPLICLDSVKVDNGDYIDIGKPVADGKVLPVVVKTLVFNEGHHHHHH | soluble |
| MSLIQDNEISSSTKTRIKALKFFSRKMLSELNFGGYRSIFKGLGLEFHEFRPYEDSDDARFIDWNVSSKADSIFSKVFKEDRGMNLHLLVDNSLSMSLGDKVNKKDVQDLLVSIFAHMAFFNNDKIGVTFFSSGTDKFIPSSKGHSHLGLILSETINRNLKPGSSLAYIFKNTAEYYKKRSLVIIISDFKANAYFKSLNVLSKRHNVIAIRISDFFDENFPKIGTLICEDIETGENFLVSGFSKSTLSGYKNYWTLDKIKWKKECIKKNISFIEIDTKEDVFKKLKILLKKGQEGHHHHHH | not soluble |
| MGSDKIHHHHHHMLKIGPIEMKNQVVLAPMAGVCNPAFRLIAKEFGAGLVCAEMVSDKAILHKNEKSLSMLYVDEREKPLSLQIFGGEKETLVEAAKFVDKNTNADIIDINMGCPVPKITKCDAGARWLLDPNKIYDMVSAVVDEVDKPVTVKMRIGWDEEHIYAVENAQAVERAGGAAVAVHGRTRVQMYEGTADWNIIREVKQAVGIPVIGNGDVKTPQDAKRMLDEIGVDGVMIGRAALGNPWMLYRTIHYLETGELLPDPTPREKMDVCMIHLDRLIKLKGENVAVREMRKHAAWYLKGLRGNGKIRDQINQFETREDVSSTLYAYIEELEAKMAEKSASVV | not soluble |
| DGLEGMDDPDATSKKVVPLGVEIYEINGPFFFGVADRLKGVLDVIEETPKVFILRMRRVPVIDATGMHALWEFQESCEKRGTILLLSGVSDRLYGALNRFGFIEALGEERVFDHIDKALAYAKLLVETAEER | not soluble |
| GMIYSKVENFINENKQNAIFTEGASHENIGRIEENLQCDLPNSYKWFLEKYGAGGLFGVLVLGYNFDHASVVNRTNEYKEHYGLTDGLVVIEDVDYFAYCLDTNKMKDGECPVVEWDRVIGYQDTVADSFIEFFYNKIQEAKDDWDEDEDWDD | soluble |
| MSLSLDESNTALAEEFDNWDLEFKLWELVDRLFRFRALFSNKAKTELLREYDFSSMGIKQENFLRKNPAIRELSIIILWLQSHTPSLVGDETESYQTKWKNTAMAVANSDFDVLASRATDADLIDKLDIDAPLRSNRSIHPADESNDSKVFAQIYKLLLQDRVQDAIDIANNTGNYALALILVGATQEYFDPVLDKEGHHHHHH | soluble |
| MSLKTLSLCPICLKRIPATILEEDGKIIIKKTCPEHGEFKDIYWGDAELYKKFDKYEFIGKIEVTNTKVKNGCPYDCGLCPNHKSTTILANIDVTNRCNLNCPICFANANKSGKVYEPSFEDIKRMMENLRKEIPPTPAIQFAGGEPTVRSDLPELIKLARDMGFLHVQLATNGIKLKNINYLKKLKEAGLSTIYLQFDGISEKPYLVARGKNLLPIKQKVIENCKKVGFDSVVLVPTLVRGVNDNEVGGIIRYAAENVDVVRGINFQPVSFTGRVDEKTLLEGRITIPDFIKLVEEQTDGEITEEDFYPVPSVAPISVLVEKLTNDRKPTLSSHQHCGTSTYVFVDEDGKLIPITRFIDVEGFLEIVKEKIEEIGKSKMHDVKVLGEIALKLPSLIDLDKAPKSVNIKKIIDLILSVLKSDYSALAELHYHMLMISCMHFMDAYNFDVKRVMRCCIHYATPDDRIIPFCTYNTLHRQEVEEKFSIPLEEWKRMHKIGGEDDREDYEGHHHHHH | soluble |
| MNDGDVSRQIQQMVRFIRQEAEEKANEISVSAEEEFNIEKLQLVEAEKKKIRQDYEKKEKQADVRKKIDYSMQLNASRIKVLQAQDDIVNAMKDQAAKDLLNVSRDEYAYKQLLKDLIVQCLLRLKEPSVLLRCREEDLGLVEAVLDDAKEEYAGKAKVHAPEVAVDTKIFLPPPPKSNDPHGLHCSGGVVLASRDGKIVCENTLDARLDVAFRMKLPVIRKSLFGQVTA | soluble |
| MKKLAIAGALLLLAGCAEVENYNNVVKTPAPDWLAGYWQTKGPQRALVSPEAIGSLIVTKEGDTLDCRQWQRVIAVPGKLTLMSDDLTNVTVKRELYEVERDGNTIEYDGMTMERVDRPTAECAAALDKAPLPTPLPLEHHHHHH | soluble |
| KQQLTEDGDSFLHLAIIHEEKALTMEVIRQVKGDLAFLNFQNNLQQTPLHLAVITNQPEIAEALLGAGCDPELRDFRGNTPLHLACEQGCLASVGVLTQSCTTPHLHSILKATNYNGHTCLHLASIHGYLGIVELLVSLGADVNAQEPCNGRTALHLAVDLQNPDLVSLLLKCGADVNRVTYQGYSPYQLTWGRPSTRIQQQLGQLTLENLQMLPESEDEESYDTESEFTEFTEDE | soluble |
| MGHHHHHHSHMAESHPWSGRPSSSPRRSSTFANYAWKHTIKPNRILIRNARPLVINFATDRLPIIKPVDQIILEDAGTVGSALNLPSESICTRPGLLLFGHYNNDVPVTPLVDFKPDEPLQVVLTAHKTIVVPPGEFVMIIVCVNFEKIKSLDLIIHEMSTSNIPLPPTCGQTFKNFNTATPSLEIYGDVIECNDDQKTCVFTAVFPGLHRRCSLHGPLNFMGFVNSVNITGTILRVYYSGVSEAAPDSILVKFKTSSAVAFSKNPCQGHVPSHDDTLIPLVYTGPTLRLLPLETISIPFNTSFVAQNPDLKAIIYDNNLKDIRISATMWTGEQTPILAHNLTAAVKLIHSGTVFARAAFFSTKENKKACTLKLCPSTILLPGGELSLDTSTLPNCFK | not soluble |
| MSLAGAVALSLFDELDVVFGPAALADALFYRHSPALRFELEGGKTYIAQFLQAVDRARTVLNVAFAGMEAVTAVLGVWGDDPPAQLWATAEAALHELGIKLPAPELSASELPTPETRVLHGEEDTQVLFAFTLSTARLPELLWGSLAADLGIFPQLRGRLWLAAPELGLLACPYDSRGMDMIGPNTARLAQLYHQFGDWLLDHDRARMAEMLSPGSKEGHHHHHH | soluble |
| MSLKKALFLILDQYADWEGVYLASALNQREDWSVHTVSLDPIVSSIGGFKTSVDYIIGLEPANFNLLVMIGGDSWSNDNKKLLHFVKTAFQKNIPIAAICGAVDFLAKNGLLNNHSHTGNFVYLWKDYKQYKPISSFVEKQAVRDKNLVTANGTAPIEFTNLILEMIDFDTPENIEKMMYMNRYGFYHFCDKYGNPFVEGHHHHHH | soluble |
| MPASQIKSAVTSPLLPQSPSLFEKYPRPHKKLKQLHWEKLDCTDNSIWGTGKAEKFADDLYEKGVLADLEKAFAAREIKSLASKRKEDLQKITFLSRDISQQFGINLHMYSSLSVADLVKKILNCDRDFLQTPSVVEFLSKSEIIEVSVNLARNYAPYSTDWEGVRNLEDAKPPEKDPNDLQRADQIYLQLMVNLESYWGSRMRALTVVTSYEREYNELLAKLRKVDKAVSALQESDNLRNVFNVILAVGNFMNDTSKQAQGFKLSTLQRLTFIKDTTNSMTFLNYVEKIVRLNYPSFNDFLSELEPVLDVVKVSIEQLVNDCKDFSQSIVNVERSVEIGNLSDSSKFHPLDKVLIKTLPVLPEARKKGDLLEDEVKLTIMEFESLMHTYGEDSGDKFAKISFFKKFADFINEYKKAQAQNLAAEEEERLYIKHKKIVEEQQK | soluble |
| MGRSQATAESYRDSLTIFKNYLVGELGKSISTFQFSDCTKECIYNFREYLLANGSQPSTVNVRVAAIRAYLNYASDMDISVQSVALAISQISPCLEHHHHHH | not soluble |
| MGSDKIHHHHHHMLLKLLHYLRCPQCRSQLSLSEATVGDWVEQGQLLCTQCRRTYAITKGIAYLYVENEEWKQLAAEAAGWVQMAKDAGCYDQTGIDIDFRLPYVPIPPWIDIARAFDIVLNIVRPRPGAMVVDIGAGRGWAAKQFAIRGCHAVAVEINDDDQIGLGRSLALMQHANVQYDLLIASSQRLPLADESFDIVFASAALHHSSCLATLLSEAARVLRRGGKLIAIHEPCIADHVTPEQDAPNIAQETAYNIHESRPKLDDYRHALRHAGLQELALFNHELYGTSIEDMQQWAANHWLSLLTADQIAMLRRKRTPTLWRTIRILRSRLQQLPDTTLVPPQDWMDQYYRHVGGSLTIIAQKP | not soluble |
| MVALAILRVEKLKSFGNVGGSEKHTARLQDTPNADTTKKNIRLIGMEDNSSLEDLVKTKIANTTKHKPRKDAVLCSEMFLSASPEYFRPDDPSRAGEWNHERMVLFAGASRQWLINNYGDKCVRAELHLDEATPHIHAYIVPINDKTKQLSHKEMFGGNGRVGSIKLSKLQDSYASALAPLGIERGVKGSKATHTKVKEYYQAVNSEPLTAVWSNKKLAPQPLESATNYVARIQNDDQFHAINHQLADRAFMQERLERAEQRARASEKERQRLEKEVRSLELKTQQLRDLELLDVAWELGLDYERERWRGHGHIINIDGSKFYDFSPDQQKGGGGAIDLVMHVNQCNFRQAVVWLHERFGEAGVERAAIAHVKNRAADIIQAEPRPQFTPPVENKANWPAVERYLTQQRGIPSDCLQMLQNLGLLYADDQQNAVFVMRDLEGQTSGAFLRGTRGENNSFKGYSKGTKRSDSWFYFGLGGQATDKVAHVLLCSSPIEAVSRAMLEYFVRGNVPPERTLYMAVDNINSLPVERLQNVPNILVTFGKDQSTNAAAQRVLELLPQSQQVLSKAADWNQQLLEYGWQLRRQQYQQQDDELSILEHHHHHH | not soluble |
| MYIDKDDFTAWMERIMDRFDMQDKKIDRVIKGRNCLDGEELLDNQDLCLLLKVAPRTLTRYRKKGILPFLMLDGRCYYRATDVHKLIREKTD | not soluble |
| MALDANDLLPPEKAFVPELAVADDGVNVRFRIADGYYMYQAKIVGKTNPADLLGQPSFSKGEEKEDEFFGRQTVYHHEAQVAFPYAKAVGEPYKLVLTYQGSAEAGVCYPPVDTEFDIFGNGTYHPQT | soluble |
| MGSDKIHHHHHHMRFYTKTHKYYCGIDLHARKKYVCILDSEGTVLVHREINCNPESFLRLVAPYREDLVVGVECMFAWYWLADLCRNEKIEFVLGHALYMKAVHGGKAKSDKIDAHKIAVLLRGGMFPLAYVYPPEMRATRDLLRRRNFFVRKRAELMAHIQNTVTQYNLAPLGIDLGVEENRHEVAQLFHDPEVRKIIEIDVAMIDAFDDVINVLEPDIEKTARQHNLHALKLLRSINGVGKVLGLVMLYEIHDINRFPTVQDFSSYCRLVKCAHESAGKKKGVGGSKIGNVHLKWAFSEAAVFFVRHNPQAKILMEKLVKIHGKGKAISILAHKLARAIFYMLKNNVPFDREKFLATA | not soluble |
